130 substances from the supplement of paper PMC12042874 can be followed below.

± gives the uncertainty stated by the source.

The data set is described as follows: amyloid nucleation score (Sup35N fusion, yeast selection) (log enrichment); library NNK3; higher = more nucleation; inactive = no reads after selection. In a few lines:
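Three technical output replicates were used for random libraries. Psi-negative yeast expressing peptides of 20 random codons fused to Sup35N were induced with 100 μM copper sulfate for 24 hours and grown 7 days at 30°C on medium lacking adenine and uracil, and input and output plasmid inserts were Illumina-sequenced, excluding sequences with under 100 input reads. The nucleation score is the DiMSum log enrichment of output over input reads, centred on the mode score of non-aggregating sequences.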

With YLIYCL, the amyloid nucleation score entry was “inactive”. In the case of YVNVYGSQMVYSKSQGHFPD, the amyloid nucleation score entry is “inactive”. As for TMWLLCELFVTC, the amyloid nucleation score entry was “inactive”. With YIMCCGV, the amyloid nucleation score was 1.61 ± 0.073.

In the case of YESRGEGVMPSTQLWMSRLG, the amyloid nucleation score entry was “inactive”. Take LNCGSAFRDVFTVMALNTRV: the amyloid nucleation score is -0.14 ± 0.88. On to CFYGDFSSILSRKVYDYYIR, for which the amyloid nucleation score entry is “inactive”. Take LRLGRTVLYPIVLWLPYCFD: the amyloid nucleation score result was “inactive”. On to RSELASLKGCDIELVFTYQR, for which the amyloid nucleation score result was “inactive”. With RCGKPVGRTYGLGISIEKAR, the amyloid nucleation score entry is “inactive”. The entry for SLSEEYDTLPATWTAQVCKR is “inactive”; for WKGWSFNLLLRGILQAIIAS it is “inactive”; for ALALMFVEGCVIYMGIGC it is 1.93 ± 0.076.

Turning to MYRLIVYT, the amyloid nucleation score entry is “inactive”. In the case of SIVSRLLDSIPMMIMSFYFG, the amyloid nucleation score entry is “inactive”. In the case of GAIRLRSVNSNLGWLTAPLR, the amyloid nucleation score result was “inactive”. As to PLPLCKVM, the amyloid nucleation score is -0.039 ± 0.66. On to SSYVLNYIHLSG, for which the amyloid nucleation score was 1.88 ± 0.08. On to NARGVKSDEILN, for which the amyloid nucleation score entry is “inactive”. On to LFPLMKQYLARGFSQDIRSA, for which the amyloid nucleation score entry was “inactive”. For KWGIGMGPSHSGLISWGHNE, the amyloid nucleation score is -0.448 ± 1.8. As for ILTGILDFFFGTSNSRYRNG, the amyloid nucleation score entry was “inactive”. As to ELCEKMFRTIFCFKCRVCMN, the amyloid nucleation score result is “inactive”. For the substance SVYQDCTGGNIPQFGSLAD, the amyloid nucleation score entry was “inactive”.

On to RDWLIMSLGVVLVWFLRYQY, for which the amyloid nucleation score result was “inactive”. Regarding RQNVWTLVPLVKFRLSNTQT, the amyloid nucleation score entry was “inactive”. The figure for NLEYCSILFKRH is 2 ± 0.095; for NNSFNYGNHGRSSVFNNLRC it is “inactive”; for IALTTRVN it is “inactive”. GTLYAKSVRNKGSS: the amyloid nucleation score entry was “inactive”. As to CELAKLVRNDSFRKDNQGYS, the amyloid nucleation score entry was “inactive”. In the case of VIFYCFSRILTYKSIVVG, the amyloid nucleation score result was “inactive”. As for LFFYRMYDGTWKGDLYIASE, the amyloid nucleation score result was “inactive”. As to IHLIVWGPSSTLVMVFMEVM, the amyloid nucleation score result was “inactive”.

Consider LSKPFPSMHFSRRWNRNGLW, for which the amyloid nucleation score result was “inactive”. As for SSARAKWSDQQMSSYRA, the amyloid nucleation score result was “inactive”. With GSKAHNDIDRGGSWMGWNIA, the amyloid nucleation score result was “inactive”.

Turning to VYVRVFGLLPDDTTSSF, the amyloid nucleation score result is “inactive”. For HVNSMA, the amyloid nucleation score entry was “inactive”. For GRSRLQQVIHLAFTIKSVNG, the amyloid nucleation score result was “inactive”. For the substance SVNSVHLMRSSEVGTHEGVG, the amyloid nucleation score result was “inactive”. With DSCVPIYVDTYGGDLDVNGG, the amyloid nucleation score entry is “inactive”.

LLWLKL: the amyloid nucleation score result was “inactive”. With SLMEGYSFSVPRSASRCSSQ, the amyloid nucleation score result is “inactive”. On to STYLMSFVLYWLWQRSLDTC, for which the amyloid nucleation score entry is “inactive”. Substance GGNICPIRPLSRKEWELGRH displayed an amyloid nucleation score of -0.566 ± 1.4. On to LHPSRLDGT, for which the amyloid nucleation score amounted to 0.411 ± 0.25. The entry for LKSDI is “inactive”.

Take SMDCFYLSHCRYRPRVI: the amyloid nucleation score result is “inactive”. TSKRSYVSTGYTNWFTFRI: the amyloid nucleation score entry was “inactive”. For TFGHWAMYVSCWDRVVCGVD, the amyloid nucleation score entry was “inactive”.

With GLSKKKECGFLLARIVVVVV, the amyloid nucleation score entry was “inactive”. Then RPKPNRSRTIASQLETKSGW, with -0.727 ± 1.1. The entry for VCLHFMGLRVAFLAGMFIII is “inactive”; for RTFWNSYWTGMVLRADWIMR it is “inactive”.

With IRFSCSSSG, the amyloid nucleation score result is “inactive”. As for LWDRVNCFYFRDEGDELEER, the amyloid nucleation score entry was “inactive”. As to DMIINILRSDYQWWSAN, the amyloid nucleation score result is “inactive”. As for RYTWTTDYNVM, the amyloid nucleation score entry was “inactive”.

For KLLLYMMYNRYLPM, the amyloid nucleation score stood at 0.528 ± 0.32. As to FATVYELAYYQGTYCKVRCS, the amyloid nucleation score is 0.148 ± 0.78. As to DNLQVTRCYLADWMSSVT, the amyloid nucleation score result was “inactive”. Regarding RDGSM, the amyloid nucleation score result was “inactive”. Consider QFGSWD, for which the amyloid nucleation score result was “inactive”. On to HVGCLIYDIQCETPGSHPSR, for which the amyloid nucleation score result is “inactive”. ITNCFWHWIRAISYANAANS: the amyloid nucleation score result is “inactive”. VWKLRLDVLIITIWGFNFYL: the amyloid nucleation score entry was “inactive”.

As for SMFCMVSFMMW, the amyloid nucleation score is -0.071 ± 0.22. With TLLFFCLEQTFNWFIMIQ, the amyloid nucleation score entry was “inactive”.

With YVSPKSIVLIPCYTMRKTRY, the amyloid nucleation score result is “inactive”. As to KKHIVY, the amyloid nucleation score result was “inactive”. As to SSTPIFFLFFKSVQQVFNFP, the amyloid nucleation score came out at 0.722 ± 0.18.

Consider DYTLDANFEGCHGQLTYMND, for which the amyloid nucleation score result is “inactive”.

RMFNDSLNRV: the amyloid nucleation score result is “inactive”. As to YIISRFYMAVWGDKPLYTGL, the amyloid nucleation score entry is “inactive”. The entry for FAYITHLKKYKSWTVPWTYY is “inactive”; for NDYGDGVSHLMGTGTPTSLW it is “inactive”; for SMNTHGCFYRRYLSESPFEC it is “inactive”. The entry for PFSSFWVTRTLIALWYSLRT is “inactive”. Then LNNSEWSLS, with “inactive”. VGIRWYGFDTCRRKFGTWNI: the amyloid nucleation score entry is “inactive”.

For the substance RRFKQCNHILACR, the amyloid nucleation score result was “inactive”. On to IDVMEYMLASYRVSWYRGLA, for which the amyloid nucleation score entry is “inactive”.

In the case of SRWLSDSEIENKWFLISDMT, the amyloid nucleation score result was “inactive”. As to IMSVRIGSLGVMSHWSLYSY, the amyloid nucleation score result was “inactive”.

Consider MKGQLARSSDLSRLDVNCMG, for which the amyloid nucleation score result was “inactive”. Regarding SVSRFKWGFKQAQWDKQRRY, the amyloid nucleation score entry is “inactive”. Take GSYLDDRGSGASIATLLVVM: the amyloid nucleation score result was “inactive”. With FYTIGWGWNQKCGIFRHMVR, the amyloid nucleation score result was “inactive”.

For NDHSEGTCSIRERQTSRWML, the amyloid nucleation score result was “inactive”.

For YSLCLGIAHVRMSTARYYLA, the amyloid nucleation score result was “inactive”. For FIVYLSCPWVRRFIVVMEFM, the amyloid nucleation score result is “inactive”. As for RNQFWTWYGVSMLSNRQHGK, the amyloid nucleation score result was “inactive”. LFMSPVKSAWRIVCGNKFSQ displayed an amyloid nucleation score of -0.642 ± 1.1. SFVQEMGDPPYHKQSQQLRS: the amyloid nucleation score result is “inactive”. Consider SEARCA, for which the amyloid nucleation score result is “inactive”.

With SLMPMNYYGVTINVRWSLIQ, the amyloid nucleation score was 0.554 ± 0.45.

Take DDLRYRNE: the amyloid nucleation score entry was “inactive”.

Turning to NISMVTSEDYMRDLLIFSTG, the amyloid nucleation score result was “inactive”. The figure for SGVLLFGVSRMHQR is 0.203 ± 0.28; for CPAYMYCTGMSVNTCPGKGG it is “inactive”. For the substance GYKGR, the amyloid nucleation score result is “inactive”.

With RRVGSWTYVSFSDGI, the amyloid nucleation score came out at 0.239 ± 0.41. Turning to TDSYICGNMLHKRALKSTSM, the amyloid nucleation score entry is “inactive”.

Take RILHFTICPNQWTRYKVDS: the amyloid nucleation score entry is “inactive”. Turning to RNKLALVLKLAHSI, the amyloid nucleation score entry is “inactive”. Then VTLFAMPRNL, with “inactive”; and VGCHLWEHWRSMQVR, with “inactive”.

For the substance VWRRKKAGAHYREDVSNYPQ, the amyloid nucleation score entry is “inactive”. Take VKRADNSSSALRWYLNMYNL: the amyloid nucleation score result was “inactive”. As to GIREAV, the amyloid nucleation score result was “inactive”. As for HTFYFYSMSSGFKRHETTSG, the amyloid nucleation score result is “inactive”. Consider TVRKSRSRSTQDEAFNPGTH, for which the amyloid nucleation score came to 0.111 ± 0.63. As for IHCSSWFELS, the amyloid nucleation score entry is “inactive”. On to YFTSEPLSAPSQWGRVKGSA, for which the amyloid nucleation score result is “inactive”. In turn, AAGRGWTGEALMHRNAQCDS yielded an amyloid nucleation score of 0.244 ± 0.87. As to DQQCDDVWRRWDGYGRRKKR, the amyloid nucleation score result is “inactive”. For SMDVLRFDQYRWLYRVFNLH, the amyloid nucleation score result is “inactive”. Regarding SNMNV, the amyloid nucleation score entry is “inactive”.

Regarding RKVNHFNE, the amyloid nucleation score entry is “inactive”. Then RYDTNSRVRIIVSNF, with “inactive”. With YINLFLLSGSFVFRVDHHFI, the amyloid nucleation score is 2.47 ± 0.088.

In the case of VFNKCVQFYFILGRNNEIWI, the amyloid nucleation score was determined as 2.56 ± 0.077. As for PRRTNRVNKSISSVLSLRIG, the amyloid nucleation score came to 0.517 ± 0.57. As for RDYYGVLLNLCLHHFWLHW, the amyloid nucleation score entry is “inactive”.

Consider NCHAGPYEVYLVVGPELLLK, for which the amyloid nucleation score entry was “inactive”. For the substance ILQYRYKGWNRKGYHQQPVI, the amyloid nucleation score result is “inactive”. Turning to NWENILGDSYLCVKWSL, the amyloid nucleation score result is “inactive”. The substance RSIITGVKVDLFNLAVTVFL showed an amyloid nucleation score of 2.62 ± 0.063.

With MGVICWYLRACNPQPGSNCK, the amyloid nucleation score entry was “inactive”.
